The target in experiment [1] is human Factor VIII (FVIII) (human) (UniProt P00451). Briefly: SPR (BIAcore), BOIIB2 immobilised on a CM5 chip, FVIII in HBS as analyte. (In general: In SPR one partner is held on a chip, and binding of the other changes the refractive index at the surface.)
Experiment [2] deals with T1, A2 domain residues 379-546 of FVIII with mutation P492A (human, UniProt P00451 398-565, 35S-methionine labelled).
T1 construct: Read as one of four single mutants; see the note of m4; not shown: cmyc (9E10) tag
T1 sequence: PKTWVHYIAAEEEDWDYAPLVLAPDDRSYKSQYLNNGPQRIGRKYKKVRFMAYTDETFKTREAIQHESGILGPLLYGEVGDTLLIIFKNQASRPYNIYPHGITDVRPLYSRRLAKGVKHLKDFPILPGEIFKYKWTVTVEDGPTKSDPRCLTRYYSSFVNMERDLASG
Briefly: immunoprecipitation of 35S-labelled polypeptide on BOIIB2-Protein A Sepharose. Here is the method:
(§1) For fragments of FVIII of less than 15 amino acids a tag sequence was added including ubiquitin and/or T7 for recognition by specific anti-tag antibodies, together with a complementary sequence of cysteines for S labeling. Polypeptide encoding FVIII fragments were produced in TNT coupled Reticulocyte Lysate Systems (Promega) according to manufacturer's instructions. Immunoprecipitation of transcribed genes was carried out as follows. Dilutions of samples containing specific antibodies were mixed to 40 μl of protein A Sepharose (Pharmacia) in 500 μl of an appropriate buffer and the mixture gently rocked for 1 hour at 4° C. Unbound antibodies are eliminated by a series of centrifugation and washings. The complex of antibody-protein A Sepharose is resuspended in 300 μl of buffer supplemented by 3 μl of in-vitro L-(³⁵S) methionine-labeled FVIII polypeptides for an incubation at 4° C. for 2 hours. Bound antigen/antibody complexes are eluted from the beads by boiling for 3 minutes in 30 μl of denaturing sample buffer and the radioactivity counted. A second aliquot is analyzed by SDS-PAGE and visualized by autoradiography. […] This system includes a combined transcription-translation provided by rabbit reticulocytes. […] Polypeptides are radiolabeled by addition of ³⁵S-methionine in the reaction mixture. BOIIB2 antibody is incubated with a Protein-A Sepharose, washed and resuspended before addition of one of the radiolabeled polypeptides. The suspension is incubated for 90 minutes at room temperature, washed and the labeled polypeptide eluted from Sepharose beads by addition of a sodium-dodecylsulfate containing buffer.

Experiment [3] concerns the target T2, A2 domain residues 379-546 of FVIII with mutation R484A (human, UniProt P00451 398-565, 35S-methionine labelled).
T2 construct: the text lists R484A; Y487A; not shown: cmyc (9E10) tag
T2 sequence: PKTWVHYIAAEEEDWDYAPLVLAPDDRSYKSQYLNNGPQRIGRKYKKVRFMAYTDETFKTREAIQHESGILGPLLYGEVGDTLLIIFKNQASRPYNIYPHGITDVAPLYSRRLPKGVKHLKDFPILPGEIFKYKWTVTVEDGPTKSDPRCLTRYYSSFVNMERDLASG
The experiment is described as above. Here is the method:
as §1

Experiment [4] concerns the target T3, A2 domain residues 379-546 of FVIII with mutation Y487A (human, UniProt P00451 398-565, 35S-methionine labelled).
T3 construct: Read as one of four single mutants; see the note of m4; not shown: cmyc (9E10) tag
T3 sequence: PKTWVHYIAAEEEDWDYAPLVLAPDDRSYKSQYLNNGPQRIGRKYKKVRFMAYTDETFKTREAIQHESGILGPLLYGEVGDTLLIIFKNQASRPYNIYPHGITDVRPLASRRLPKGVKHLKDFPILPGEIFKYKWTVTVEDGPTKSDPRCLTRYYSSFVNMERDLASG
The description is as above. Here is the method:
as §1

Experiment [5] deals with T4, A2 domain residues 379-546 of FVIII with mutation R489A (human, UniProt P00451 398-565, 35S-methionine labelled).
T4 construct: Read as one of four single mutants; see the note of m4; not shown: cmyc (9E10) tag
T4 sequence: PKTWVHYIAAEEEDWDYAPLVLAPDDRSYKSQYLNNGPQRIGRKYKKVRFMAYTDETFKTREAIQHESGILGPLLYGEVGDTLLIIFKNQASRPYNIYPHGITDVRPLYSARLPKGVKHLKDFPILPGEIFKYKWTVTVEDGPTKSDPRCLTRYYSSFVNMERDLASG
The description is as above. On the procedure:
as §1

Experiment [6] has as its target human Factor VIII (FVIII) (human) (UniProt P00451). Briefly: cell-based or functional assay.

Sequence of human Factor VIII (FVIII) (human) (P00451 20-2351): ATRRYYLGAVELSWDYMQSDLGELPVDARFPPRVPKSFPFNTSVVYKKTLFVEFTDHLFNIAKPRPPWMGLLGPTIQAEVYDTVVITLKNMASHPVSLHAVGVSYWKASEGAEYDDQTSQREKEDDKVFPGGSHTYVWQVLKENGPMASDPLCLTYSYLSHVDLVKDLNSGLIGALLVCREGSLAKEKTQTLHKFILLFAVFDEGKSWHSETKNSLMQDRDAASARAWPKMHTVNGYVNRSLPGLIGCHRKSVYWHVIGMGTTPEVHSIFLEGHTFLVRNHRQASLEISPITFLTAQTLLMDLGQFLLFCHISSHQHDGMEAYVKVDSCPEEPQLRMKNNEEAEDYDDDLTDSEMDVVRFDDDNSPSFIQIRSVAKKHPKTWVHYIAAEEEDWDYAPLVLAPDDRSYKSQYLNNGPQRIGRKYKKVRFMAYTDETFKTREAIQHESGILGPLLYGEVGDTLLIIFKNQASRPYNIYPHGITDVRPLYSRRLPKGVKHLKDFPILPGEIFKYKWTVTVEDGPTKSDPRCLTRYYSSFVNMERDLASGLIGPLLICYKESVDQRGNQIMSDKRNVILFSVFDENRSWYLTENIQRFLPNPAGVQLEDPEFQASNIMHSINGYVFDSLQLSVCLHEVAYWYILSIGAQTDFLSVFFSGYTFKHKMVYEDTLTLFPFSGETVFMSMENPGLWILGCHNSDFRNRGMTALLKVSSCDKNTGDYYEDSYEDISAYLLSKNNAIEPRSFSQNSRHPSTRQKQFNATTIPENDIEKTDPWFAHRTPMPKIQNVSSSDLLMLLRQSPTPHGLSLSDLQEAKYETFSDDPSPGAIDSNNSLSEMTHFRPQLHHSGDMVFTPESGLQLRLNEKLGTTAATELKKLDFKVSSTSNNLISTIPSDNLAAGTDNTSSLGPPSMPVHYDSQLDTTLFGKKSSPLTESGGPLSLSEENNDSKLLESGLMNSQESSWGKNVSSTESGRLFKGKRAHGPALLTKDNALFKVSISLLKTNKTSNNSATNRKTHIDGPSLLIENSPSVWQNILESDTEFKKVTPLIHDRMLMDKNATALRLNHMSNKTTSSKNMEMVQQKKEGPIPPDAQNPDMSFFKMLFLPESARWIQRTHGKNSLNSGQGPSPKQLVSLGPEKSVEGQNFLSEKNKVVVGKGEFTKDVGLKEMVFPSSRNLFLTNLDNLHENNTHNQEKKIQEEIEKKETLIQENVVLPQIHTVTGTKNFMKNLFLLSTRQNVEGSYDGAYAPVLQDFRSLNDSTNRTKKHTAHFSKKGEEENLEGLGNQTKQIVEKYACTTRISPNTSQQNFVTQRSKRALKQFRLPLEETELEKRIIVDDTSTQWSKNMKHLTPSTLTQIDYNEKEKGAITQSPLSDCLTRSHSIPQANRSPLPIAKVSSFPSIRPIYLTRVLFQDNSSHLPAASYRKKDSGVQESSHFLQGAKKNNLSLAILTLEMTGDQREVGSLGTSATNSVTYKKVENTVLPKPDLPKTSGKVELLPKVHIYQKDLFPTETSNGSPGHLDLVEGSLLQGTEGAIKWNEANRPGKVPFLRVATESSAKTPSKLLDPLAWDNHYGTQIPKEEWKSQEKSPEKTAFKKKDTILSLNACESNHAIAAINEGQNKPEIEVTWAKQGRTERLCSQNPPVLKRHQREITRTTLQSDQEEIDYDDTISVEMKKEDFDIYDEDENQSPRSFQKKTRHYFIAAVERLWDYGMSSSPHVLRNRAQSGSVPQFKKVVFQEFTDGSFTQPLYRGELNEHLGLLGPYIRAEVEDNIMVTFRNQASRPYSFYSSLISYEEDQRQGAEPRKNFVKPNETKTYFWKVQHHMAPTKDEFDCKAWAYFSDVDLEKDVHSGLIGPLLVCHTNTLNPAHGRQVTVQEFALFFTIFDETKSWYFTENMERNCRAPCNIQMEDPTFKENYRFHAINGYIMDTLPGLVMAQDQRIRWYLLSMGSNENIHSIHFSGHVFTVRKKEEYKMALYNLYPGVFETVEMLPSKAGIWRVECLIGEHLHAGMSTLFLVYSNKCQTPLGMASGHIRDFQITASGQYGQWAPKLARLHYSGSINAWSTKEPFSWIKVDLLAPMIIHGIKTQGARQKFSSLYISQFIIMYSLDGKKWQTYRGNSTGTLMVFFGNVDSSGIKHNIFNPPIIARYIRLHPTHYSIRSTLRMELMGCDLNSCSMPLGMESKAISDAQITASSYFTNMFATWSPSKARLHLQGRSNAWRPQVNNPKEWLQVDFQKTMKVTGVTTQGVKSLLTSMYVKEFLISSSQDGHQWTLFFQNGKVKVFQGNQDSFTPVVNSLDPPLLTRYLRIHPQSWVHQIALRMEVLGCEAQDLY

B1: human monoclonal antibody BOIIB2, produced by the cell line deposited under accession number LMBP 6422CB at the BCCM (antibody, V domains shown)
VH: QVQLQESGPGLVKPSETLSLTCTVSGDSISDYYWSWIRQPPGKGLEWIGYFFYSGGSNYNPSLKSRVTMSVDTSKNQFSLKLGSVTAADTAVYYCARSQLRYYLDVWGQGTTVTVSS
VL: EIVLTQSPGTLSLSPGERATLSCRASQSVDSNYLAWYQQKPGQAPRVVIYGASNRATGIPDRFSGSGSGTEFTLTISRLDPEDFAVYYCQQYGSFFGQGTRLEIK
notes: VH4 (DP-71)/JH6c, VkappaIII/Jkappa5; also called BIIIB2
B1: in experiment [1], the koff (usually the rate constant with which the complex falls apart) was found to be 1e-08 s⁻¹. In addition, the binding result in experiment [2], in experiment [3], in experiment [4] and in experiment [5] was “no binding” throughout. For the same molecule, the Percentage of inhibition of FVIII in a chromogenic assay (thrombin-activated FVIII as cofactor of factor IXa in the conversion of factor X to factor Xa) in experiment [6] stood at 99%.
